Test results as given in publication PMC9330637.
Read-outs that look alike come from different tables or passages of the source.

Assays:
FUS wild-type [1] = target: T1, FUS wild-type (UniProt P35637 1-526); test: single-molecule fluorescence
FUS Y>S = FUS Y>S (UniProt P35637 1-526, Y6S;Y14S;Y17S;Y25S;Y33S;Y38S;Y41S;Y50S;Y55S;Y58S;Y66S;Y75S;Y81S;Y91S;Y97S;Y100S; …); test: single-molecule fluorescence
FUS wild-type [2] = target: T1, FUS wild-type; test: single-molecule fluorescence; remark: listed apart in the source
FUS wild-type [3] = target: T1, FUS wild-type; test: fluorescence anisotropy

B1: pdU50 RNA (mixed)
RNA 1: UUUUUUUUUUUUUUUUUUUUUUUUUUUUUUUUUUUUUUUUUUUUUUUUUUGCCUCGCUGCCGUCGCCA
RNA 2: UGGCGACGGCAGCGAGGC
binding result (FUS wild-type [1]): binds

B2: pdPAR22 (mixed)
DNA 1: TGGCGACGGCAGCGAGGC
DNA 2: GCCTCGCTGCCGTCGCCA
modifications: PAR 22-mer joined to DNA strand 1 by alkyne-azide click; PAR not part of printed strand
binding result (FUS Y>S): binds
binding result (FUS wild-type [2]): binds

B3: pdPAR9 (mixed)
DNA 1: TGGCGACGGCAGCGAGGC
DNA 2: GCCTCGCTGCCGTCGCCA
modifications: PAR 9-mer joined to DNA strand 1 by alkyne-azide click; PAR not part of printed strand
binding result (FUS wild-type [2]): binds

UUUUUUUUUUUUUUUUUUUUUUUUUUUUUUUUUUUUUUUU (ssRNA) [U40 RNA]
Kd (FUS wild-type [3]): ~5 nM
